In paper PMC9458464, “The BAF A12T mutation disrupts lamin A/C interaction, impairing robust repair of nuclear envelope ruptures in Nestor–Guillermo progeria syndrome cells” (Nucleic Acids Research, 2022):

T1: lamin A/C Ig-fold domain (aa 411-566) (human, UniProt P02545 411-566)
T1 construct: human lamin A/C fragment from aa 411 to aa 566 (Ig-fold domain); 15N-labelled (grown in M9) for the NMR experiments; also called Igfold domain of lamin A/C; source: E. coli BL21* (DE3), purified (glutathione beads, thrombin cleavage, gel filtration)
T1 sequence (looked up): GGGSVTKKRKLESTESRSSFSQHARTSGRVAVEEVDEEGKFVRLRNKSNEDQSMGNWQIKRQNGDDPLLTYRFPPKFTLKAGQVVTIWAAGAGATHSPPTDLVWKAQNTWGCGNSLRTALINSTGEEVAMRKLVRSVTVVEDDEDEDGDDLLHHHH

T2: BAF WT (barrier-to-autointegration factor, purified cysteine-free construct) (human, UniProt O75531 1-89, M1G | C67A | C77A | C80A | C85A)
T2 sequence: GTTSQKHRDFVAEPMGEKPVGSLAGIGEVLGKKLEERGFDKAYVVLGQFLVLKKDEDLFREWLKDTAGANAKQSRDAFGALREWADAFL

T3: BAF A12T (barrier-to-autointegration factor A12T, purified cysteine-free construct) (human, UniProt O75531 1-89, M1G | A12T | C67A | C77A | C80A | C85A)
T3 sequence: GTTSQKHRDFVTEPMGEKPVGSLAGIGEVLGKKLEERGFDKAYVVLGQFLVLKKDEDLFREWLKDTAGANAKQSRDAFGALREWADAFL


Tests used:
[1] = biological target: T1, lamin A/C Ig-fold domain (aa 411-566); assay: NMR titration; 2D 1H-15N HSQC of 15N-labelled lamin A/C Ig-fold (80 uM; 160 uM in one sample) with unlabelled BAF at ratios 1:1 and 1:2; 50 mM HEPES pH 7.4, 150 mM NaCl, 293 K; peak intensity ratios I/Io; conditions: both partners purified
[2] = biological target: T1, lamin A/C Ig-fold domain (aa 411-566); assay: ITC; VP-ITC; 100 or 200 uM lamin A/C Ig-fold in the syringe, 20 uM BAF WT or 40 uM BAF A12T in the cell; 50 mM Hepes pH 7.4, 150 mM NaCl, 288 K; stoichiometry set to 0.5 in the fit; each experiment done twice; conditions: both partners purified
[3] = biological target: the molecule itself; assay: crystal structure; BAF A12T-lamin A/C Ig-fold complex recovered after ITC (50 mM Hepes pH 7.4, 150 mM NaCl), about 20 mg/ml; sitting drop, 0.1 M bicine pH 9, 3 M ammonium sulfate; 1.6 A
[4] = biological target: T2, BAF WT (barrier-to-autointegration …); assay: ITC; experiment 2
[5] = biological target: T3, BAF A12T (barrier-to-autointegration …); assay: ITC; experiment 2
[6] = biological target: T2, BAF WT (barrier-to-autointegration …); assay: ITC; experiment 1
[7] = biological target: T3, BAF A12T (barrier-to-autointegration …); assay: ITC; experiment 1
[8] = biological target: T2, BAF WT (barrier-to-autointegration …); assay: ITC
[9] = biological target: T3, BAF A12T (barrier-to-autointegration …); assay: ITC

Binder	percent of the initial NMR signals of the Ig-fold left at 1:1 ratio [1] [%]	percent of the initial NMR signals of the Ig-fold left at 1:2 ratio [1] [%]	Kd [2] [µM]	stoichiometry N [3]	decrease of NMR signal intensity of the Ig-fold at 1:1 ratio [1] [%]	decrease of NMR signal intensity of the Ig-fold at 1:2 ratio [1] [%]	Kd [4] [µM]	Kd [5] [µM]	Kd [6] [µM]	Kd [7] [µM]	Kd [8] [µM]	Kd [9] [µM]
BAF WT (barrier-to-autointegration factor, purified cysteine-free construct) (natural protein, human, UniProt O75531 1-89, looked up, human barrier-to-autointegration factor (BAF, 89 amino acids); after tag cleavage the first residue is G instead of M; gene synthesized by Genscript in pETM13; also called BAF WT dimer; not shown: His8, N-terminal, cleaved) GTTSQKHRDFVAEPMGEKPVGSLAGIGEVLGKKLEERGFDKAYVVLGQFLVLKKDEDLFREWLKDTAGANAKQSRDAFGALREWADAFL	27	4	2.7 ± 1.2									
BAF A12T (barrier-to-autointegration factor A12T, purified cysteine-free construct) (natural protein, human, UniProt O75531 1-89, looked up, human barrier-to-autointegration factor (BAF, 89 amino acids); made by mutagenesis of the BAF WT expression vector (all cysteines to alanine, M1G after tag cleavage) with the NGPS mutation A12T; PDB 6GHD holds the parent (BAF WT); PDB 7Z21 holds this mutant; also called BAF A12T dimer; not shown: His8, N-terminal, cleaved) GTTSQKHRDFVTEPMGEKPVGSLAGIGEVLGKKLEERGFDKAYVVLGQFLVLKKDEDLFREWLKDTAGANAKQSRDAFGALREWADAFL			33 ± 4	2	43	66						
lamin A/C Ig-fold domain (aa 411-566) (domain or fragment) GGGSVTKKRKLESTESRSSFSQHARTSGRVAVEEVDEEGKFVRLRNKSNEDQSMGNWQIKRQNGDDPLLTYRFPPKFTLKAGQVVTIWAAGAGATHSPPTDLVWKAQNTWGCGNSLRTALINSTGEEVAMRKLVRSVTVVEDDEDEDGDDLLHHHH							3.1	42	2.3	24	2.3	24
